{"source": "paper PMC4346194", "about": "(Structure (London, England : 1993), 2015)", "experiment_in_all_cases": "pull-down", "key": {"[1]": {"biological_target": "GST-tagged FL-importin α7 (human, UniProt O60684 1-536)"}, "[2]": {"biological_target": "T1, GST-tagged FL-importin α3 (RRRR) (human, UniProt O00629 1-521, Q28R)", "T1 sequence": "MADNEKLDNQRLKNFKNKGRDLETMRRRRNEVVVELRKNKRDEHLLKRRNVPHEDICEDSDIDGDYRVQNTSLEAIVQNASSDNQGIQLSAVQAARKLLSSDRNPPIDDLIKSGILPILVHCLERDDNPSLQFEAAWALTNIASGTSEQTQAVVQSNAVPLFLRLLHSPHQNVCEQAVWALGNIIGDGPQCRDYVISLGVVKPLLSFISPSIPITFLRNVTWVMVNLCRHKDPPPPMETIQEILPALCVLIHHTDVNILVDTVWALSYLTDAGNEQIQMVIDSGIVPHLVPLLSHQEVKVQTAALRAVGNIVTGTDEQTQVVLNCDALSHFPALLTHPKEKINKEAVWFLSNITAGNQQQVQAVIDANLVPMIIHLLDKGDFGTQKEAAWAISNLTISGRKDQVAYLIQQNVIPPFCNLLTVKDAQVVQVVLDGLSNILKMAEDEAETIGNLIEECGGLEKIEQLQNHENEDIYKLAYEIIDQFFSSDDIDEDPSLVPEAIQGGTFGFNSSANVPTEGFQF"}, "[3]": {"biological_target": "GST-tagged FL-importin α1 (mouse, UniProt P52293 1-529)"}, "[4]": {"biological_target": "T2, GST-tagged FL-importin α3 (human, UniProt O00629 1-521)", "T2 sequence": "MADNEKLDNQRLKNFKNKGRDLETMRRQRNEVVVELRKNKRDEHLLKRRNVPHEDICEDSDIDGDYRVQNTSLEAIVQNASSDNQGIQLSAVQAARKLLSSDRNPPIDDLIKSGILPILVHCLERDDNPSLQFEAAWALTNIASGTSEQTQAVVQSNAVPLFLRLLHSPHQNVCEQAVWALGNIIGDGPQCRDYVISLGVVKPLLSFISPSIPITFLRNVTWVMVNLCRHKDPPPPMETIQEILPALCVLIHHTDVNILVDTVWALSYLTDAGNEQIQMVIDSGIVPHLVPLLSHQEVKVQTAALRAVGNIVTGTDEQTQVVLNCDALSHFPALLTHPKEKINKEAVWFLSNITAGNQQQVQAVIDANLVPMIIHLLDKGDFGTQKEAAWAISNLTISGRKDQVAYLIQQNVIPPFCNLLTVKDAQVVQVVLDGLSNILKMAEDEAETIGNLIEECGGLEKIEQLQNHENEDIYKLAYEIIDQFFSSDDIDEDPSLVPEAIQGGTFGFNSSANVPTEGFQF"}}, "data": [{"binder": "KRPAATKKAGQAKKKK", "note": "[MBP-tagged nucleoplasmin NLS (NP-NLS, res. 155-170)]", "values": [{"measurement": "percent of importin α bound to cargo", "setting": "[1]", "result": 46, "unit": "%"}, {"measurement": "percent of importin α bound to cargo", "setting": "[2]", "result": 27, "unit": "%"}, {"measurement": "percent of importin α bound to cargo", "setting": "[3]", "result": 25, "unit": "%"}, {"measurement": "percent of importin α bound to cargo", "setting": "[4]", "result": 35, "unit": "%"}]}]}
